Series [1] has as its target 3XFLAG-TBP T114A (p3XFLAG-cmv10 construct) (human, UniProt P20226 1-339, T114A). Kind of series: co-IP.
The next series can be described thus: ChIP-qPCR ± TMG. The settings on record: glycan lost; control: TBP3X-WT cells. A general note: Real-time PCR tracks product formation cycle by cycle.
Series [2] can be described thus: IP and anti-phosphothreonine blot. The settings on record: glycan lost; control: TBP3X-WT cells.
A short description of series [3]: TBP:BTAF1 interaction under LG, HG, TMG, Ac4SGlcNAc. The settings on record: glycan lost; control: TBP3X-WT cells.

B1: B-TFIID TATA-Box Binding Protein Associated Factor 1 (BTAF1), endogenous human (natural protein, UniProt O14981 1-1849, looked up)
chain: MAVSRLDRLFILLDTGTTPVTRKAAAQQLGEVVKLHPHELNNLLSKVLIYLRSANWDTRIAAGQAVEAIVKNVPEWNPVPRTRQEPTSESSMEDSPTTERLNFDRFDICRLLQHGASLLGSAGAEFEVQDEKSGEVDPKERIARQRKLLQKKLGLNMGEAIGMSTEELFNDEDLDYTPTSASFVNKQPTLQAAELIDSEFRAGMSNRQKNKAKRMAKLFAKQRSRDAVETNEKSNDSTDGEPEEKRRKIANVVINQSANDSKVLIDNIPDSSSLIEETNEWPLESFCEELCNDLFNPSWEVRHGAGTGLREILKAHGKSGGKMGDSTLEEMIQQHQEWLEDLVIRLLCVFALDRFGDFVSDEVVAPVRETCAQTLGVVLKHMNETGVHKTVDVLLKLLTQEQWEVRHGGLLGIKYALAVRQDVINTLLPKVLTRIIEGLQDLDDDVRAVAAASLVPVVESLVYLQTQKVPFIINTLWDALLELDDLTASTNSIMTLLSSLLTYPQVQQCSIQQSLTVLVPRVWPFLHHTISSVRRAALETLFTLLSTQDQNSSSWLIPILPDMLRHIFQFCVLESSQEILDLIHKVWMELLSKASVQYVVAAACPWMGAWLCLMMQPSHLPIDLNMLLEVKARAKEKTGGKVRQGQSQNKEVLQEYIAGADTIMEDPATRDFVVMRARMMAAKLLGALCCCICDPGVNVVTQEIKPAESLGQLLLFHLNSKSALQRISVALVICEWAALQKECKAVTLAVQPRLLDILSEHLYYDEIAVPFTRMQNECKQLISSLADVHIEVGNRVNNNVLTIDQASDLVTTVFNEATSSFDLNPQVLQQLDSKRQQVQMTVTETNQEWQVLQLRVHTFAACAVVSLQQLPEKLNPIIKPLMETIKKEENTLVQNYAAQCIAKLLQQCTTRTPCPNSKIIKNLCSSLCVDPYLTPCVTCPVPTQSGQENSKGSTSEKDGMHHTVTKHRGIITLYRHQKAAFAITSRRGPTPKAVKAQIADLPAGSSGNILVELDEAQKPYLVQRRGAEFALTTIVKHFGGEMAVKLPHLWDAMVGPLRNTIDINNFDGKSLLDKGDSPAQELVNSLQVFETAAASMDSELHPLLVQHLPHLYMCLQYPSTAVRHMAARCVGVMSKIATMETMNIFLEKVLPWLGAIDDSVKQEGAIEALACVMEQLDVGIVPYIVLLVVPVLGRMSDQTDSVRFMATQCFATLIRLMPLEAGIPDPPNMSAELIQLKAKERHFLEQLLDGKKLENYKIPVPINAELRKYQQDGVNWLAFLNKYKLHGILCDDMGLGKTLQSICILAGDHCHRAQEYARSKLAECMPLPSLVVCPPTLTGHWVDEVGKFCSREYLNPLHYTGPPTERIRLQHQVKRHNLIVASYDVVRNDIDFFRNIKFNYCILDEGHVIKNGKTKLSKAVKQLTANYRIILSGTPIQNNVLELWSLFDFLMPGFLGTERQFAARYGKPILASRDARSSSREQEAGVLAMDALHRQVLPFLLRRMKEDVLQDLPPKIIQDYYCTLSPLQVQLYEDFAKSRAKCDVDETVSSATLSEETEKPKLKATGHVFQALQYLRKLCNHPALVLTPQHPEFKTTAEKLAVQNSSLHDIQHAPKLSALKQLLLDCGLGNGSTSESGTESVVAQHRILIFCQLKSMLDIVEHDLLKPHLPSVTYLRLDGSIPPGQRHSIVSRFNNDPSIDVLLLTTHVGGLGLNLTGADTVVFVEHDWNPMRDLQAMDRAHRIGQKRVVNVYRLITRGTLEEKIMGLQKFKMNIANTVISQENSSLQSMGTDQLLDLFTLDKDGKAEKADTSTSGKASMKSILENLSDLWDQEQYDSEYSLENFMHSLK
Take B1: the “fold amount of BTAF1 co-IPed against TBP^WT” value in series [1] is around 3 fold.

B2: TATA-box binding protein (TBP): TBP3X-T114A (protein)
parent chain: MDQNNSLPPYAQGLASPQGAMTPGIPIFSPMMPYGTGLTPQPIQNTNSLSILEEQQRQQQQQQQQQQQQQQQQQQQQQQQQQQQQQQQQQQQQQQAVAAAAVQQSTSQQATQGTSGQAPQLFHSQTLTTAPLPGTTPLYPSPMTPMTPITPATPASESSGIVPQLQNIVSTVNLGCKLDLKTIALRARNAEYNPKRFAAVIMRIREPRTTALIFSSGKMVCTGAKSEEQSRLAARKYARVVQKLGFPAKFLDFKIQNMVGSCDVKFPIRLEGLVLTHQQFSSYEPELFPGLIYRMIKPRIVLLIFVSGKVVLTGAKVRAEIYEAFENIYPILKGFRKTT
In the case of B2, the “other: TMG-induced rise in promoter occupancy” value in “ChIP-qPCR ± TMG” is on record as “abolishes”. Moreover, the “other: TBP phosphorylation” value in series [2] is reported as “no change”. Also, in series [3], the “other: response of BTAF1 binding to glucose/TMG/Ac4SGlcNAc” value is given as “abolishes”.

The record behind these values is paper PMC7061307 (Molecular cell, 2019).
